{"source": "the nanobody polyreactivity screen of Harvey et al. (2022)", "data": [{"assay": "yeast display, Sf9 membrane polyspecificity reagent, FACS + sequencing; frameworks hold sequencing errors", "outline": "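Galactose induction of a Saccharomyces cerevisiae BJ5465 synthetic nanobody display library ran 36–48 hours. The cells were then stained for 1 hour at 4 °C with 10% biotinylated, detergent-solubilized Sf9 membrane reagent, pulled down on streptavidin microbeads and FACS-sorted into low and high (top ~1%) gates on expression and reagent-binding fluorescence. Labels for polyreactivity follow the gate of origin.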", "values": [{"sequence": "QVQLVESGGGLVQAGGSLRLSCAASGSIFASNAMGWYRQAPGKEREFVAAITWRTDRTYYADSVKGRFTISRDNAKNTVYLQMNSLKPEDNAVYYCAADTWFDRFYYWGQGTQVTVSS", "polyreactivity (PSR sort gate)": "high polyreactivity"}, {"sequence": "QVQLLESGGGLVQAGGSLRLSCAASGSTIRVNGMGWYRQAPGKERELVAVISWSGGSTYYADSVKGRFTISRDNAKNTVYLQMNSLKPEDTAVYYCNKLIYDEDEYWGQGTQVSVSS", "polyreactivity (PSR sort gate)": "high polyreactivity"}, {"sequence": "QVQLVESGGGLVQAGGSLRLSCAASGSTFYRNAMGWYRQAPGKERELVAAISRDGSTYYADSVKGRFTISRDNAKNTVYLQMNSLKPEDTAVYSCAKAGVTNGVVVDSVYAYDYWGQGTQVTVSS", "polyreactivity (PSR sort gate)": "low polyreactivity"}, {"sequence": "QVQLVESGGGLVQAGGSLRLSSAATGSIFLSNMGWYRQAPGKERELVAAIYRNGGSTYYADSVKGRFTISRDNAKNTVYLQMNSLKPEDTAVYYCAVQRYWGQGTQVTVSS", "polyreactivity (PSR sort gate)": "high polyreactivity"}, {"sequence": "QVQLVESGGGLVQAGGSLRLSCAASGRTFNSNAMGCYRQAPGKERELVARISRGASTYYADSVKGRFTISRDNAKNTVYLQMNSLKPEDTAVYYCAKRRRSAAPKYDYWGQGTQVTVSS", "polyreactivity (PSR sort gate)": "high polyreactivity"}, {"sequence": "QVQLVESGGGLFQAGGSLRLSCAASGIIFQSYDMAWYRQAPGKERELVAAISRGGGSTYYADSVKGRFTISRDNAKNTVYLQMNSLIPEDTAVYYCAADYRGEYDYWGQGTQVTVSS", "polyreactivity (PSR sort gate)": "low polyreactivity"}, {"sequence": "QVQIVESGGGLVQAGGSLRLSCAASGITLSYNAMGWYRPATEKDRELVAGISYSGGRTYYADSVKGRFTISRDNAKNTVYLQMYSLKPEVTAVYYCATDLYISFRYGGYFWGQGTQVTVSS", "polyreactivity (PSR sort gate)": "high polyreactivity"}, {"sequence": "QVQLVESGGGLVQAGGSLRLSCAASGSIFEGYVMGWYRQAPGKERELVATISFSGGSTYYADSVKGRFTISRDNAKNTVYLQMTSLKPEDTAVYFCNALVYHTKGDYGYWGQGTQVTVSS", "polyreactivity (PSR sort gate)": "low polyreactivity"}, {"sequence": "QVQLVESGGGLVQAGGSLRLSCAASGLTFRTYAMGWYRQAPGKERELVAAITWSGDSTYADSVKGRFTISRDNAKNTVYLQMNSLKPEDTAVYYCATKGYFSYHPYDYWGQGTQVTVSS", "polyreactivity (PSR sort gate)": "low polyreactivity"}, {"sequence": "QVQLVESGGGFVQAGGSLRLSCAASGSTFDYNTMGWYRQAPGKERELVAAISESGGSTYYADSVKGRFTISRDNAKNTVYLQMNSLKPEDTAVYYCAADTIGYHYWYDYWGQGTQVTVSS", "polyreactivity (PSR sort gate)": "low polyreactivity"}, {"sequence": "QVQLVESGGGLVQAGGSLRLSCAASGIIFYVYAMGWYRQAPGKERELVAAISSSGGSTNYADSVKGRFTISRDNAKNTVYLQMNSLKPEDTAVYFCAAKWRTRGHTSARGYWGQGTQVTVSS", "polyreactivity (PSR sort gate)": "high polyreactivity"}, {"sequence": "QVQLVESGGGLVQAGGSLSLSCAASGRIIDWNTMGLYRQAPGKERDLDATISWDGGTKYYADSVKGRFTISRDTAKNTVFLQMNSLKPEDTAVYYCNKSPLNFFRFRATYDYWGQGTQVTVSS", "polyreactivity (PSR sort gate)": "low polyreactivity"}, {"sequence": "QVQLVESGGGLVQAGGSLRLSCAASGFTFVSYAMGWYRQAPGKERELVAAISKRGGSTSYADSVKGRFTISRDNAKNTVYLQMNSLKPEDTAVYYCNKRSYAWSPHVDYWGQGTQVTVSS", "polyreactivity (PSR sort gate)": "high polyreactivity"}, {"sequence": "QVQLLESGGGLVQAGGSLRLSCAASGRIFGRYAMGWYRQAPGKERELVAAISSGGRTNYADSVKGRFTISRDNAKNTVYLQMNSLKPEDTAVYYCAARAYTYQAQSNYWGQGTQVTVSS", "polyreactivity (PSR sort gate)": "high polyreactivity"}, {"sequence": "QVQLVESVVGLVQARGTLRLSGATTGNTFYKNTMRWYRQPHGKERELVAAISQRGTRTYYADSVQGRFTISRDYAKNTVYLQMNSLKPEDTAVYYCPTVMSQVGFDYWGQGTQVTVSS", "polyreactivity (PSR sort gate)": "high polyreactivity"}, {"sequence": "QVQLVESGGCLVQAGGSLRLSCAASGSIFRYYAMGWYRQAPGKDRELVAAISWSSGRTYYADSVKGRFTISRDNAKNTVYLQMNSLKPEDTAVYYCAAGVPGYPRYEYDYWGQGTQVTVSS", "polyreactivity (PSR sort gate)": "high polyreactivity"}, {"sequence": "QVQLVESGGGLVQAGGSLRLSCAASGRIFAAYAMGWYRQAPGKERELVAGISRGGRTYYADSVKGRFTISRDNAKNTVYLQMNSLKPEDTAVYYCNKAPSWWDVRVPFDYWGQGTQVTVSS", "polyreactivity (PSR sort gate)": "low polyreactivity"}, {"sequence": "QVQLVESGGGLVQAGGSLRLSCAASGGIFGYYTMGWYRQAPGKERELVAAITWRGSTYYADSVKGRFTISRDNAKNTVYLQMNSLKPEDTAVYYCAARYYSPYGYCGQGTQVTVSS", "polyreactivity (PSR sort gate)": "high polyreactivity"}, {"sequence": "QVQLVESGGGLVQAGGSLRLSCAASGRIFRVNAMGWYRQAPGKERELVAAISGRGGSTYYADSVKGRFTISRDNANNTVYLQMNSLKPEDTAVYYCAKKSFSYGYNSYDYWGQGTQVTVSS", "polyreactivity (PSR sort gate)": "high polyreactivity"}, {"sequence": "QVQLVESGGGLVQAGGSLRLSCAASGITIRPYTMGWYRQAPGKERELVARISRRGGSTYYADSVKGRFTISRDNAKNTVYLQMNSLKPEDTAVYYCATRSRAHISPYDYWGQGTQVTVSS", "polyreactivity (PSR sort gate)": "high polyreactivity"}, {"sequence": "QVQLVESGGGLVQAGGSLRLSCAASGRTLIVNTMGWYRQAPGKEREFVAAIFSGASTYYADSVKGRFTISRDNAMNTDYLQINSVKPEDTAVYYCAAAVFRWSRYDYWGQGTQVTVSS", "polyreactivity (PSR sort gate)": "low polyreactivity"}, {"sequence": "QVQLVESGGGLVQAGGSLRLSCAASGSIFARYAMGWYRQAPGKERELVAAIDQSAGSTYYADSVKGRFTISRDNAKNTVYLQMNSLKPEDTAVYYCNADYWYWWVITYVGPGLGYWGQGTQVTVSS", "polyreactivity (PSR sort gate)": "high polyreactivity"}, {"sequence": "QVQLVESGGGLVQAGGSLRLSCAASGSIFDDYAMGWYRQAPGKERELVAAISWSGGSTYYADSVKGRFTISRDNAKNTVYLQINSLKPEDTAVYYCAKESGWVGAIHYDYWGQGTQVTVSS", "polyreactivity (PSR sort gate)": "low polyreactivity"}, {"sequence": "QVQLVESGGGLVQAGGSLRLSCAASGFIFLGNAKGWYRQATGKERELVAAISSGGSTYADSVKGRFTISRDNAKNTVYLQMNSLKPEDTAVYYCAVDRAFRAQNYHEYDYWGQGTQVTVSS", "polyreactivity (PSR sort gate)": "low polyreactivity"}, {"sequence": "QVQLVESGGGLVQAGGSLRLSCAASGRIFIYYAMGRYRQAPGKERELVAGIDYSGGSTYYADSVKGRFTISRDNAKNTVYLQMNSLKPEDTAVYFCAAGKYRHYYGRSFYRFDYWGKGTQVTVSS", "polyreactivity (PSR sort gate)": "high polyreactivity"}, {"sequence": "QGQLVESGGGLVQEGGSLRLSCAASGRIFQNYAMGWYRQAPGKERELVATIDIGGSTKYADSVKGRFTISRDNAKNTVYLQMNSLKPEDTAVYYCNVPAFFYGYYRFDYWGQGTQVTVSS", "polyreactivity (PSR sort gate)": "high polyreactivity"}, {"sequence": "QVQLVESGGGLVQAGGSLRLSCAASGTIFYDNDMGWYRQAPGKERELVAAISWSASDTYYADSVKGRFTISRDNAKNTVYLHINILKPEDTAVYYCNAEVYVWYFVYSALDYWGLGTQVTVSS", "polyreactivity (PSR sort gate)": "low polyreactivity"}, {"sequence": "QVQLVESGGGLVQAGGSLRLSCAASGITFYHYAMGWYRQAPGKERELVAAITRSGGRTYYADSVKGRFTISRDNAKNTVFLQMNSLKPEDTAVYYCATDDRQGYFRSPREYDYWGQGTQVTVSS", "polyreactivity (PSR sort gate)": "high polyreactivity"}, {"sequence": "QVQLVESGGGLVQAGGSLRLSCAASGRLFKSYAMGWYRQAPGKERELVAAIRSGGSTYYADSVKGRFTISRDNAKNTVYLQMISLKPEDTAVYYCNRVTRTWTVTYHYWGQGTQVTVSS", "polyreactivity (PSR sort gate)": "high polyreactivity"}, {"sequence": "QVQLQERAGGLVQAGGSLRQSCAASGYRSLAQTIGWYRQAPGKEREFVASIALGSSTYYTDSVKGSFTISRDNAKTTVYLQMNSLKPEATAVYYCNARDDVYLITPYFLVYVNLDYWGQGTQVTVSS", "polyreactivity (PSR sort gate)": "low polyreactivity"}, {"sequence": "QVQLVESGGGLVQAGGSLRLSCAASGYIFRYYAMGWYRQAPGKERELVAAISRSGGNTYYADSVKGRFTISRDNAKNTVYLQMNSLKPEDTAVYYCAVVLSTYSYADYDYWGQGTQVTVSS", "polyreactivity (PSR sort gate)": "high polyreactivity"}, {"sequence": "QVQLVESGGGLVQAGGSLSLSCAASGRNFLRNAMGWYRKAPGKERELVAAIKSGGNTYYADSVKGRFTISRDNAKITVYLQMNSLKPEYTAVYYCADRQYGFASYRMDYWGHGTQVTVSS", "polyreactivity (PSR sort gate)": "high polyreactivity"}, {"sequence": "QVQLVESGGGLVQAGGSLRLSCAASGITFYGYAMGWYRQAPGKERELVAVITSSGSSTYYADSVKGRFTISRDNAKNTVYLQMNSLTPEDTAVYYCNARPGRRSLRSRTYDYWGQGTQVTVSS", "polyreactivity (PSR sort gate)": "high polyreactivity"}, {"sequence": "QVQLVESGGGLVQAGGSLRLICAASGSTFGPYSMGWYRQAPGKEMELVAVITTSGSTNYADSVKGRFTISRDNAKNTVYLQMNSLKPEDTAVYYCAARYRYYGTNRYYYWGQGTQVTVSS", "polyreactivity (PSR sort gate)": "high polyreactivity"}, {"sequence": "QVQLVESGGGLVQAGGSLRLSCAASGIYAYVMGWYRPAPGKERELVAAISGTGGRTYYADSVKGRFTISRDNAKNTVYLQMNSLKPEDTAVYYCAARGIYQPKTFDYWGQGTQVTVSS", "polyreactivity (PSR sort gate)": "high polyreactivity"}, {"sequence": "QVQLQESGGGLVQAGGDLRLSCAASGTIFRDYIMGWYRQAPGKEREFVAGIDRGANTNYADSVKGRFTISRDNAKNTVYLQMNSLKPEDTAVYYCAADWWRVDMDYWGQGTQVTVSS", "polyreactivity (PSR sort gate)": "low polyreactivity"}, {"sequence": "QVQLVESGGGLVQAGGSLRLSCAASGRIFDYYAMGWYRQAPGKERELVAAITVRGGTTYYADSVKGRFTISRDNAKNTVDLQMNSLKPEDTAVYYCAASDRRRYYYWGQGTQVTVSS", "polyreactivity (PSR sort gate)": "high polyreactivity"}, {"sequence": "QVQLVESGGGLVQAGGSLRLICAASGFTFGPYDMGGYRQAPGKERELVAAITDSSGSTHYADSVKGRFTISRDNAKNTVYLQMNSLKPEDTAVYYCAASDVVFALNGYYPGEDDYWGQGTQVTVSS", "polyreactivity (PSR sort gate)": "low polyreactivity"}, {"sequence": "QVQLVDSGGGLVQAGGSLRLSCAASGRIFPWYAMGWYRQAPGKEMELVAAINWRAGLTYYADSVKGRFTISRDYAKNTVYLQMNSLKPEDTAVYYCNARSGRGQAYGYWGQGTQVSVSS", "polyreactivity (PSR sort gate)": "high polyreactivity"}, {"sequence": "QFQLVESGGGLVQAGGSLRLSCAASGRIFCSYAMGWYIQAPGKERELVAAITSGGSTNYADSVKARFTISRDNAKNTVYLLMNSLKQEDTAVYYCADVEYLRESDYWGQGTQVTVSS", "polyreactivity (PSR sort gate)": "low polyreactivity"}, {"sequence": "QVQLVESGGGLVHAGGSLRLSCAASGSIYYAYAMGGYRQAPGKERELVATITWNGDSTYYADSVKGRFTISLDNAKNTVYLQMNSLKPEDTAVYYCAARYRWPIPGTQYEYWGQGTQVTVSS", "polyreactivity (PSR sort gate)": "low polyreactivity"}]}]}
